Consider eight molecules from US20140154252A1 (EMERGENT PRODUCT DEVELOPMENT SEATTLE, published 2014).

The target of test [1] is T1, CD20 (human, UniProt P11836 1-297).
T1 construct: whole, on cells; 2H7 is called murine anti-human CD20; also called CD20 presented on WIL-2S cells; CD20 on Ramos, BJAB, SU-DHL-6 and DoHH2 B cells
T1 sequence (looked up): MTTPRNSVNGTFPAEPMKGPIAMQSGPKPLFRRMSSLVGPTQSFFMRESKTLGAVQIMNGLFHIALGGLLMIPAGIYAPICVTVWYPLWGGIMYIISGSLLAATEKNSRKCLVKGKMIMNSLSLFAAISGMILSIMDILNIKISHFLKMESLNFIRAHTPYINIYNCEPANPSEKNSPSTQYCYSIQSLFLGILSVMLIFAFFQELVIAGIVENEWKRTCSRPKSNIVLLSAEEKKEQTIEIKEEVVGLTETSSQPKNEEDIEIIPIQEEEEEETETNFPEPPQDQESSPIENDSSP
Kind of test: flow cytometry, dilutions of crude COS supernatant on WIL-2S cells (CD20), FITC goat anti-human IgG. The method, then: Seeded plates containing the proteins were incubated on ice for one hour. Subsequently, the wells were washed once with 200 μl 1% FBS in PBS. Goat anti-human antibody labeled with FITC (Fc Sp) at 1:100 was then added to each well, and the plates were again incubated on ice for one hour. The plates were then washed once with 200 μl 1% FBS in PBS and the cells were re-suspended in 200 μl 1% FBS and analyzed by FACS.
(Flow cytometry measures light scatter and fluorescence of single cells or particles in a stream.)

Test [2] addresses T1, CD20. Put plainly: flow cytometry on WIL2-S cells (CD20), purified protein at 5 ug/mL, FITC goat anti-human IgG 1:100. The method, then:
Each of the proteins was tested for binding at 5 μg/ml, and binding detected with FITC goat anti-human IgG at 1:100. Control is FITC goat anti-human IgG alone. See the description for FIG. 2 above for more complete descriptions of the modules of the molecules tested.

For test [3], the target named is T1, CD20. Put plainly: sandwich flow cytometry: 2e12HL on WIL-2S cells (CD20), then CD28mIgG, then FITC anti-mouse.
Test [4] has as its target T1, CD20. Put plainly: flow cytometry on WIL2S cells (CD20), FITC goat anti-human IgG; no unit printed on the axis (legend: ug/ml).
Test [5] addresses T2, CD28mIgG (UniProt P10747 19-152).
T2 construct: Bought reagent; the construct is not described; also called CD28Ig (Ancell); CD28 fused to mouse antibody; not shown: mouse Ig part of the bought fusion; not described
Put plainly: Western blot, non-reducing, probed with CD28Ig and goat anti-mouse HRP conjugate. The method, then:
(§1) Electrophoresis was performed under non-reducing conditions, and without boiling samples prior to loading. After electrophoresis, proteins were transferred to PVDF membranes using a semi-dry electroblotter apparatus (Ellard, Seattle, Wash.) for 1 hour at 100 mAmp. Membranes were blocked in BLOTTO (5% nonfat milk in PBS) overnight with agitation. FIG. 9A: Membranes were incubated with the AbyD02429.2, a Fab directed to the 2H7 antibody, at 5 μg/ml in BLOTTO for one hour, then washed 3 times for 5 minutes each in PBS-0.5% Tween 20. Membranes were then incubated in 6×His-HRP for one hour at a concentration of 0.5 μg/ml. Blots were washed three times for 15 minutes each in PBST. Wet membranes were incubated with ECL solution for 1 minute, followed by exposure to X-omat film for 20 seconds.
(§2) FIG. 9B: Membranes were incubated with CD28Ig (Ancell, Bayport, Minn.) at 10 μg/ml in BLOTTO, then washed three times for 15 minutes each in PBS-0.5% Tween 20. Membranes were then incubated in goat anti-mouse HRP conjugate (CalTag, Burlingame, Calif.) at 1:3000 in BLOTTO. Membranes were washed three times, for 15 minutes each, then incubated in ECL solution for 1 minute, followed by exposure to X-omat film for 20 seconds.
Background: A western blot detects proteins with antibodies after separation by electrophoresis.

Test [6] has as its target T2, CD28mIgG. Kind of test: Western blot of non-reduced protein probed with CD28 murine IgG, then goat anti-mouse HRP. The method, then:
as §1, §2

B1: 2H7-sssIgG P238S/P331S-STD1-2e12 VLVH (bispecific antibody)
chain: QIVLSQSPAILSASPGEKVTMTCRASSSVSYMHWYQQKPGSSPKPWIYAPSNLASGVPARFSGSGSGTSYSLTISRVEAEDAATYYCQQWSFNPPTFGAGTKLELKDGGGSGGGGSGGGGSSQAYLQQSGAESVRPGASVKMSCKASGYTFTSYNMHWVKQTPRQGLEWIGAIYPGNGDTSYNQKFKGKATLTVDKSSSTAYMQLSSLTSEDSAVYFCARVVYYSNSYWYFDVWGTGTTVTVSEPKSSDKTHTSPPSPAPELLGGSSVFLFPPKPKDTLMISRTPEVTCVVVDVSHEDPEVKFNWYVDGVEVHNAKTKPREEQYNSTYRVVSVLTVLHQDWLNGKEYKCKVSNKALPASIEKTISKAKGQPREPQVYTLPPSRDELTKNQVSLTCLVKGFYPSDIAVEWESNGQPENNYKTTPPVLDSDGSFFLYSKLTVDKSRWQQGNVFSCSVMHEALHNHYTQKSLSLSPGKNYGGGGSGGGGSGGGGSGNSDIVLTQSPASLAVSLGQRATISCRASESVEYYVTSLMQWYQQKPGQPPKLLISAASNVESGVPARFSGSGSGTDFSLNIHPVEEDDIAMYFCQQSRKVPWTFGGGTKLEIKRGGGGSGGGGSGGGGSQVQLKESGPGLVAPSQSLSITCTVSGFSLTGYGVNWVRQPPGKGLEWLGMIWGDGSTDYNSALKSRLSITKDNSKSQVFLKMNSLQTDDTARYYCARDGYSNFHYYVMDYWGQGTSVTVSS
notes: also called 2H7-IgG-STD1-2E12 LH; 2H7-2E12 LH
Consider B1, for which, in the test with CD20 [1], the binding result is “binds”.

B2: 2H7-sssIgG P238S/P331S-STD1-2e12 VHVL (bispecific antibody)
chain: QIVLSQSPAILSASPGEKVTMTCRASSSVSYMHWYQQKPGSSPKPWIYAPSNLASGVPARFSGSGSGTSYSLTISRVEAEDAATYYCQQWSFNPPTFGAGTKLELKDGGGSGGGGSGGGGSSQAYLQQSGAESVRPGASVKMSCKASGYTFTSYNMHWVKQTPRQGLEWIGAIYPGNGDTSYNQKFKGKATLTVDKSSSTAYMQLSSLTSEDSAVYFCARVVYYSNSYWYFDVWGTGTTVTVSEPKSSDKTHTSPPSPAPELLGGSSVFLFPPKPKDTLMISRTPEVTCVVVDVSHEDPEVKFNWYVDGVEVHNAKTKPREEQYNSTYRVVSVLTVLHQDWLNGKEYKCKVSNKALPASIEKTISKAKGQPREPQVYTLPPSRDELTKNQVSLTCLVKGFYPSDIAVEWESNGQPENNYKTTPPVLDSDGSFFLYSKLTVDKSRWQQGNVFSCSVMHEALHNHYTQKSLSLSPGKNYGGGGSGGGGSGGGGSGNSQVQLKESGPGLVAPSQSLSITCTVSGFSLTGYGVNWVRQPPGKGLEWLGMIWGDGSTDYNSALKSRLSITKDNSKSQVFLKMNSLQTDDTARYYCARDGYSNFHYYVMDYWGQGTSVTVSSGGGGSGGGGSGGGGSGGGGSDIVLTQSPASLAVSLGQRATISCRASESVEYYVTSLMQWYQQKPGQPPKLLISAASNVESGVPARFSGSGSGTDFSLNIHPVEEDDIAMYFCQQSRKVPWTFGGGTKLEIKR
notes: Assembled from modules as m10; also called 2H7-IgG-STD1-2E12 HL; 2H7-2E12 HL
As to B2, the binding result with CD20 [2] is “binds”.

B3: 2e12 VHVL SMIP (Fc fusion)
chain: QVQLKESGPGLVAPSQSLSITCTVSGFSLTGYGVNWVRQPPGKGLEWLGMIWGDGSTDYNSALKSRLSITKDNSKSQVFLKMNSLQTDDTARYYCARDGYSNFHYYVMDYWGQGTSVTVSSGGGGSGGGGSGGGGSGGGGSDIVLTQSPASLAVSLGQRATISCRASESVEYYVTSLMQWYQQKPGQPPKLLISAASNVESGVPARFSGSGSGTDFSLNIHPVEEDDIAMYFCQQSRKVPWTFGGGTKLEIKR
notes: SMIP: scFv-hinge-CH2-CH3; also called 2E12IgG-VHVL SMIP; 2e12 HL SMIP; not shown: hinge-CH2-CH3 of human IgG
Turning to B3, in the test with CD20 [3], the binding result is recorded as “no binding (tested: 5 ug/ml)”.

B4: 2H7-sss-hIgG-STD1-G19-4 HL (bispecific antibody)
chain (part 1 of 2): QIVLSQSPAILSASPGEKVTMTCRASSSVSYMHWYQQKPGSSPKPWIYAPSNLASGVPARFSGSGSGTSYSLTISRVEAEDAATYYCQQWSFNPPTFGAGTKLELKDGGGSGGGGSGGGGSSQAYLQQSGAESVRPGASVKMSCKASGYTFTSYNMHWVKQTPRQGLEWIGAIYPGNGDTSYNQKFKGKATLTVDKSSSTAYMQLSSLTSEDSAVYFCARVVYYSNSYWYFDVWGTGTTVTVSEPKSSDKTHTSPPSP
chain (part 2 of 2): NYGGGGSGGGGSGGGGSGNSEVQLQQSGPELVKPGASMKISCKASGYSFTGYIVNWLKQSHGKNLEWIGLINPYKGLTTYNQKFKGKATLTVDKSSSTAYMELLSLTSEDSAVYYCARSGYYGDSDWYFDVWGAGTTVTVSSGGGGSGGGGSGGGGSASDIQMTQTTSSLSASLGDRVTISCRASQDIRNYLNWYQQKPDGTVKLLIYYTSRLHSGVPSRFSGSGSGTDYSLTIANLQPEDIATYFCQQGNTLPWTFGGGTKLVTKRS
notes: Assembled from modules; also called 2H7sssIgG1-STD1-G19-4 HL; CD20-hIgG-CD3 multispecific molecule (SSS hinge, HL); not shown: human IgG1 CH2-CH3
For the molecule B4, the binding result in the test with CD20 [4] is “binds”.

B5: 2H7-sss-hIgG-STD1-G19-4 LH (bispecific antibody)
chain (part 1 of 2): QIVLSQSPAILSASPGEKVTMTCRASSSVSYMHWYQQKPGSSPKPWIYAPSNLASGVPARFSGSGSGTSYSLTISRVEAEDAATYYCQQWSFNPPTFGAGTKLELKDGGGSGGGGSGGGGSSQAYLQQSGAESVRPGASVKMSCKASGYTFTSYNMHWVKQTPRQGLEWIGAIYPGNGDTSYNQKFKGKATLTVDKSSSTAYMQLSSLTSEDSAVYFCARVVYYSNSYWYFDVWGTGTTVTVSEPKSSDKTHTSPPSP
chain (part 2 of 2): NYGGGGSGGGGSGGGGSGNSDIQMTQTTSSLSASLGDRVTISCRASQDIRNYLNWYQQKPDGTVKLLIYYTSRLHSGVPSRFSGSGSGTDYSLTIANLQPEDIATYFCQQGNTLPWTFGGGTKLVTKRGGGGSGGGGSGGGGSASEVQLQQSGPELVKPGASMKISCKASGYSFTGYIVNWLKQSHGKNLEWIGLINPYKGLTTYNQKFKGKATLTVDKSSSTAYMELLSLTSEDSAVYYCARSGYYGDSDWYFDVWGAGTTVTVSS
notes: Assembled from modules; also called 2H7sssIgG1-STD1-G19-4 LH; CD20-hIgG-CD3 multispecific molecule (LH); not shown: human IgG1 CH2-CH3
With B5, the binding result with CD20 [4] was “binds”.

B6: 2H7-csc-hIgG-STD1-G19-4 HL (bispecific antibody)
chain (part 1 of 2): QIVLSQSPAILSASPGEKVTMTCRASSSVSYMHWYQQKPGSSPKPWIYAPSNLASGVPARFSGSGSGTSYSLTISRVEAEDAATYYCQQWSFNPPTFGAGTKLELKDGGGSGGGGSGGGGSSQAYLQQSGAESVRPGASVKMSCKASGYTFTSYNMHWVKQTPRQGLEWIGAIYPGNGDTSYNQKFKGKATLTVDKSSSTAYMQLSSLTSEDSAVYFCARVVYYSNSYWYFDVWGTGTTVTVSEPKSCDKTHTSPPCP
chain (part 2 of 2): NYGGGGSGGGGSGGGGSGNSEVQLQQSGPELVKPGASMKISCKASGYSFTGYIVNWLKQSHGKNLEWIGLINPYKGLTTYNQKFKGKATLTVDKSSSTAYMELLSLTSEDSAVYYCARSGYYGDSDWYFDVWGAGTTVTVSSGGGGSGGGGSGGGGSASDIQMTQTTSSLSASLGDRVTISCRASQDIRNYLNWYQQKPDGTVKLLIYYTSRLHSGVPSRFSGSGSGTDYSLTIANLQPEDIATYFCQQGNTLPWTFGGGTKLVTKRS
notes: Assembled from modules; also called CD20-hIgG-CD3 multispecific molecule (CSC hinge, HL); not shown: human IgG1 CH2-CH3
B6: the binding result with CD20 [4] is “binds”.

B7: SMIP-sized cleaved fragment (2H7-sss-hIgG) of 2H7-sss-hIgG-H6-2e12 (other)
chain: QIVLSQSPAILSASPGEKVTMTCRASSSVSYMHWYQQKPGSSPKPWIYAPSNLASGVPARFSGSGSGTSYSLTISRVEAEDAATYYCQQWSFNPPTFGAGTKLELKDGGGSGGGGSGGGGSSQAYLQQSGAESVRPGASVKMSCKASGYTFTSYNMHWVKQTPRQGLEWIGAIYPGNGDTSYNQKFKGKATLTVDKSSSTAYMQLSSLTSEDSAVYFCARVVYYSNSYWYFDVWGTGTTVTVSEPKSSDKTHTSPPSPAPELLGGSSVFLFPPKPKDTLMISRTPEVTCVVVDVSHEDPEVKFNWYVDGVEVHNAKTKPREEQYNSTYRVVSVLTVLHQDWLNGKEYKCKVSNKALPASIEKTISKAKGQPREPQVYTLPPSRDELTKNQVSLTCLVKGFYPSDIAVEWESNGQPENNYKTTPPVLDSDGSFFLYSKLTVDKSRWQQGNVFSCSVMHEALHNHYTQKSLSLSPGK
notes: Cleavage product seen on gels and blots, about 52 kDa; also called cleaved forms of the multivalent constructs; peptide fragment containing (2H7-sss-hIgG), and missing the CD28 scFv BD2 portion; not shown: C-terminal end: cleaved at or near the H6 linker, site not determined
Regarding B7, the binding result in the test with CD28mIgG [5] is “no binding (tested: CD28Ig at 10 µg/ml)”.

B8: TRU-015 (Fc fusion, not shown: a dimerising Fc or GST)
chain: QIVLSQSPAILSASPGEKVTMTCRASSSVSYMHWYQQKPGSSPKPWIYAPSNLASGVPARFSGSGSGTSYSLTISRVEAEDAATYYCQQWSFNPPTFGAGTKLELKDGGGSGGGGSGGGGSSQAYLQQSGAESVRPGASVKMSCKASGYTFTSYNMHWVKQTPRQGLEWIGAIYPGNGDTSYNQKFKGKATLTVDKSSSTAYMQLSSLTSEDSAVYFCARVVYYSNSYWYFDVWGTGTTVTVS
notes: SMIP: scFv-hinge-CH2-CH3; also called 2H7 SMIP; CD20 SMIP (TRU015)
On to B8, for which, in the test with CD28mIgG [6], the binding result is “no binding”.
